Earlier results on 2 substances are cited in publication PMC6295471.

Targets include Mxd1 5-20 (Homo sapiens) (UniProt Q05195); Mxd1 5-24 (Homo sapiens) (UniProt Q05195); Sap30 SID (Mus musculus) (UniProt O88574).
UniProt Q05195, sequence (Q05195 5-24): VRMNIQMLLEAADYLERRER
UniProt O88574, sequence (O88574 130-220): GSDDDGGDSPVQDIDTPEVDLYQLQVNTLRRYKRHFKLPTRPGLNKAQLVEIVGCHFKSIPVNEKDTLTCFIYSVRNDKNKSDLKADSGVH

Regarding Sin3 PAH2 (from UniProt Q62141), the dissociation constant Kd (as a rule, the free concentration of one partner at which half of the binding sites on the other are occupied at equilibrium, for simple one-to-one binding) in the data set with Mxd1 5-20 (Homo sapiens) was 1400 nM; with Mxd1 5-24 (Homo sapiens), 400 nM.

Sin3 PAH3 (from UniProt Q60520): the dissociation constant (Kd) in the data set with Sap30 SID (Mus musculus) is 10 nM.
